Data set [1] concerns the target T1, D-2-hydroxy-4-methylpentanoic acid dehydrogenase (Lacticaseibacillus paracasei, UniProt P17584).
T1 sequence (P17584 1-333): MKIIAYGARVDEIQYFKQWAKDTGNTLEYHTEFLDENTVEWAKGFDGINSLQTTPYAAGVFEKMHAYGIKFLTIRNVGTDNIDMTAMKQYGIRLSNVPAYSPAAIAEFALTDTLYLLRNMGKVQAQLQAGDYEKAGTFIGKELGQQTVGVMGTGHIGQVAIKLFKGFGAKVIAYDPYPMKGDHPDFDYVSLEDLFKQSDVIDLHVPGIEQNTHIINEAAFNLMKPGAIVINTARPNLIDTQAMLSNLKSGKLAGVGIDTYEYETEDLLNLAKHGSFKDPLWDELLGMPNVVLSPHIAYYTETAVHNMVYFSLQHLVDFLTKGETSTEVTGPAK
Briefly: Reduction kinetics: reaction velocity versus NADH and 2-ketocarboxylic acid concentration. Type of data set: biochemical, Lactobacillus casei ssp. pseudoplantarum. More on the design: endogenous in cells; host or cells: Lactobacillus casei ssp. pseudoplantarum DSM 20008, enzyme isolated from the cells grown in house. On the procedure: The reaction speed for reduction of different 2-ketocarboxylic acids was also investigated as a function of the keto acid concentration. […] The ketocarboxylic acid concentration was in each case varied from 0.01 to a maximum of 60 mM. The initial reaction velocity, change of extinction at 340 nm/min, was evaluated by non-linear regression of the Michaelis-Menten equation.

In data set [2] the target is T1, D-2-hydroxy-4-methylpentanoic acid dehydrogenase. Briefly: Reduction of 2-ketocarboxylic acids in an enzyme membrane reactor with PEG-NADH, polarimetric read-out. Type of data set: biochemical, Lactobacillus casei ssp. pseudoplantarum (DSM 20008). Details: endogenous in cells; host or cells: Lactobacillus casei ssp. pseudoplantarum DSM 20008, enzyme isolated from the cells grown in house. To be noted: 7.0 mM 2-ketocarboxylic acid feed, stationary value; for Rotation of Production Solution: 463 nm, 25° C. On the procedure: (Preparation according to DE-PS 28 41 414). The following keto acids were converted individually in the reactor:
2-keto-4-methylpentanoic acid (sodium salt), 2-keto-4-(methylmercapto)-butyric acid (sodium salt) and phenyl pyruvate (sodium salt). The product stream flowing out of the membrane reactor was analyzed continuously in a polarimeter. The signals obtained were evaluated by means of calibration curves which had been obtained from optically active 2-hydroxy acids.
The PEG-NADH is prepared according to DE-PS No. 28 41 414. […] The reactor volume is kept constant, by adding keto acid and sodium formate buffer from a reservoir at the same rate as the ultrafiltrate leaves the reactor. The reactor volume was 10 ml, the concentration of PEG-NADH 0.20 mM, and 9 U D-2-hydroxy-4-methylpentanoic acid dehydrogenase (27 U/mg) and 30 U formate-dehydrogenase were fed into the reactor. The substrate solution contained 300 mM sodium formate buffer of pH 7.0 and 7.0 mM of the corresponding 2-ketocarboxylic acid. The reaction solution was pumped over the membrane continuously with a peristaltic pump at 30 ml/hour. About 3 ml ultrafiltrate per hour was obtained. The ultrafiltrate was led continuously through a polarimeter cell (Perkin Elmer Type 241). The determinations were carried out at 463 nm and 25° C. From the measured rotatory value, the product concentration was determined from a calibration curve. The calibration curves were prepared with optically active 2-hydroxycarboxylic acids in 300 mM sodium formate buffer of pH 7.0. For this, the following preparations were used: L-phenyllactic acid (Sigma Company, Munich), L-2-hydroxy-4-methylpentanoic acid (Sigma Company, Munich), and D-2-hydroxy-4-(methylmercapto)-butyric acid (Degussa Company, Hanau). The conversion in the membrane reactor was followed over a period of 15 hours.

For data set [3] the target is unchanged. Briefly: Dehydrogenation kinetics: reaction velocity versus NAD+ and 2-hydroxycarboxylic acid concentration. The procedure: The dependence of the reaction velocity on the NAD^+ concentration in the dehydrogenation of D-2-hydroxy-4-methylpentanoic acid was studied in the following test mixture: 0.1M phosphate buffer at pH 8.0, 12 mM D,L-2-hydroxy-4-methylpentanoic acid, limiting quantities of enzyme.
The dependence of the reaction speed on the concentration of different 2-hydroxycarboxylic acids for the dehydrogenation of D-2-hydroxycarboxylicacids was tested in the following test mixture: 0.1M phosphate buffer at pH 8.0, 4.5 mM NAD^+ and limiting quantities of enzyme. The concentration of D-2-hydroxycarboxylic acid was varied in the range from 0.1 to a maximum of 30 mM. Inasmuch as no chiral D-2-hydroxycarboxylic acid was available, the racemate was added. […] The initial reaction velocity was evaluated according to Michaelis-Menten, and the kinetic constants Vmax and KM determined by non-linear regression.

Substrate in data set [4]: CC(C)CC(O)C(=O)O
Kind of data set: purified protein, by the assay type. Particulars: other: dehydrogenation, pH 8.0, 4.5 mM NAD+, calculated assuming 50% D-acid in the racemic mixtures.

Substrate in data set [5]: CC(C)C[C@@H](O)C(=O)O
Briefly: purified protein, by the assay type. Particulars: other: dehydrogenation, pH 8.0, 4.5 mM NAD+, calculated assuming 50% D-acid in the racemic mixtures.

Substrate in data set [6]: CCCC(O)C(=O)O
Kind of data set: purified protein, by the assay type. Particulars: other: dehydrogenation, pH 8.0, 4.5 mM NAD+, calculated assuming 50% D-acid in the racemic mixtures.

Substrate in data set [7]: CCCCC(O)C(=O)O
Kind of data set: purified protein, by the assay type. To be noted: other: dehydrogenation, pH 8.0, 4.5 mM NAD+, calculated assuming 50% D-acid in the racemic mixtures.

Substrate in data set [8]: CCCCCCC(O)C(=O)O
Briefly: purified protein, by the assay type. Particulars: other: dehydrogenation, pH 8.0, 4.5 mM NAD+, calculated assuming 50% D-acid in the racemic mixtures.

Substrate in data set [9]: CSCCC(O)C(=O)O
Briefly: purified protein, by the assay type. To be noted: other: dehydrogenation, pH 8.0, 4.5 mM NAD+, calculated assuming 50% D-acid in the racemic mixtures.

Substrate in data set [10]: NC(=O)C1=CN([C@@H]2O[C@H](COP(=O)(O)OP(=O)(O)OC[C@H]3O[C@@H](n4cnc5c(N)ncnc54)[C@H](O)[C@@H]3O)[C@@H](O)[C@H]2O)C=CC1
Kind of data set: purified protein, by the assay type. Particulars: other: pH 7.0, 0.7 mM 2-keto-4-methylpentanoic acid.

Substrate in data set [11]: NC(=O)c1ccc[n+]([C@@H]2O[C@H](COP(=O)([O-])OP(=O)(O)OC[C@H]3O[C@@H](n4cnc5c(N)ncnc54)[C@H](O)[C@@H]3O)[C@@H](O)[C@H]2O)c1
Briefly: purified protein, by the assay type. To be noted: other: pH 8.0, 12 mM D,L-2-hydroxy-4-methylpentanoic acid.

Substrate in data set [12]: O=C(O)C(=O)Cc1ccccc1
Briefly: purified protein, by the assay type. To be noted: other: reduction, pH 7.0, 0.1 mM NADH.

Substrate in data set [13]: O=C(O)C(O)Cc1ccccc1
Briefly: purified protein, by the assay type. To be noted: other: dehydrogenation, pH 8.0, 4.5 mM NAD+, calculated assuming 50% D-acid in the racemic mixtures.

Substrate in data set [14]: CC(C)C(=O)C(=O)O
Briefly: purified protein, by the assay type. The class given is biochemical, Lactobacillus casei ssp. pseudoplantarum. To be noted: other: reduction, pH 7.0, 0.1 mM NADH.

Substrate in data set [15]: CC(C)CC(=O)C(=O)O
Briefly: purified protein, by the assay type. Type of data set: biochemical, Lactobacillus casei ssp. pseudoplantarum. To be noted: other: reduction, pH 7.0, 0.1 mM NADH.

Substrate in data set [16]: CCC(=O)C(=O)O
Briefly: purified protein, by the assay type. Particulars: other: reduction, pH 7.0, 0.1 mM NADH. The class given is biochemical, Lactobacillus casei ssp. pseudoplantarum.

Substrate in data set [17]: CCC(C)C(=O)C(=O)O
Kind of data set: purified protein, by the assay type. Particulars: other: reduction, pH 7.0, 0.1 mM NADH. The class given is biochemical, Lactobacillus casei ssp. pseudoplantarum.

Substrate in data set [18]: CCCC(=O)C(=O)O
Kind of data set: purified protein, by the assay type. The class given is biochemical, Lactobacillus casei ssp. pseudoplantarum. To be noted: other: reduction, pH 7.0, 0.1 mM NADH.

Substrate in data set [19]: CCCCC(=O)C(=O)O
Briefly: purified protein, by the assay type. The class given is biochemical, Lactobacillus casei ssp. pseudoplantarum. Particulars: other: reduction, pH 7.0, 0.1 mM NADH.

Substrate in data set [20]: CCCCCCC(=O)C(=O)O
Kind of data set: purified protein, by the assay type. The class given is biochemical, Lactobacillus casei ssp. pseudoplantarum. To be noted: other: reduction, pH 7.0, 0.1 mM NADH.

Substrate in data set [21]: CSCCC(=O)C(=O)O
Kind of data set: purified protein, by the assay type. Type of data set: biochemical, Lactobacillus casei ssp. pseudoplantarum. To be noted: other: reduction, pH 7.0, 0.1 mM NADH.

Substrate in data set [22]: O=C(O)C(=O)CS
Kind of data set: purified protein, by the assay type. Type of data set: biochemical, Lactobacillus casei ssp. pseudoplantarum. Particulars: other: reduction, pH 7.0, 0.1 mM NADH.

Regarding `NC(=O)C1=CN([C@@H]2O[C@H](COP(=O)(O)OP(=O)(O)OC[C@H]3O[C@@H](n4cnc5c(N)ncnc54)[C@H](OP(=O)(O)O)[C@@H]3O)[C@@H](O)[C@H]2O)C=CC1` [NADPH], the “Replacement of the coenzyme NADH” value in [1] (checked up to a test concentration of 0.2 mM) was “cannot replace”.

As for `O=C(O)C(=O)Cc1ccccc1` [2-keto-3-phenylpropionic acid], in data set [2], the “Rotation of Production Solution” value is on record as -0.115 °, the “% conversion” value is 100% and the Product concentration came out at 7.0 mM.

As for `CC(C)CC(=O)C(=O)O` [2-keto-4-methylpentanoic acid], in data set [2], the “Rotation of Production Solution” value is -0.047 °, the “% conversion” value turned out to be 100% and the Product concentration was 7.0 mM.

Turning to `CSCCC(=O)C(=O)O` [2-keto-4-(methylmercapto)-butyric acid], in data set [2], the “Rotation of Production Solution” value is given as -0.071 °, the “% conversion” value is 98% and the Product concentration stood at 6.9 mM.

For the molecule `NC(=O)c1ccc[n+]([C@@H]2O[C@H](COP(=O)([O-])OP(=O)(O)OC[C@H]3O[C@@H](n4cnc5c(N)ncnc54)[C@H](OP(=O)(O)O)[C@@H]3O)[C@@H](O)[C@H]2O)c1` [NADP], in data set [3] (checked at test concentrations up to 10 mM), the “Replacement of the coenzyme NAD+” value is “cannot replace”.

For the molecule `NC(=O)c1ccc[n+]([C@@H]2O[C@H](COP(=O)([O-])OP(=O)(O)OC[C@H]3O[C@@H](n4cnc5c(N)ncnc54)[C@H](O)[C@@H]3O)[C@@H](O)[C@H]2O)c1` [NAD^+, nicotinamide-adeninedinucleotide], in data set [3] (pH 8.0, 12 mM D,L-2-hydroxy-4-methylpentanoic acid), the “NAD+ concentration at which the optimum conversion is reached” value came to 4.5 mM.

Take `NC(=O)C1=CN([C@@H]2O[C@H](COP(=O)(O)OP(=O)(O)OC[C@H]3O[C@@H](n4cnc5c(N)ncnc54)[C@H](O)[C@@H]3O)[C@@H](O)[C@H]2O)C=CC1` [NADH]: the “NADH concentration at which the optimal reaction velocity was reached” value in [1] (pH 7.0, 0.7 mM 2-keto-4-methylpentanoic acid) is given as 0.10 mM.

B1: D-2-hydroxy-4-methylpentanoic acid dehydrogenase (Lacticaseibacillus paracasei) (protein)
chain: T1 sequence (P17584 1-333)
notes: 500 g Lactobacillus casei ssp. pseudoplantarum (DSM 20008) wet mass was suspended in 50 mM phosphate buffer; endogenous in cells; host or cells: Lactobacillus casei ssp. pseudoplantarum DSM 20008, enzyme isolated from the cells grown in house
Turning to B1, the Km (in general, the concentration of substrate that gives half-maximal velocity) was 1400 µM in data set [4]; 1400 µM in data set [5]; 700 µM in data set [6]; 470 µM in data set [7]; 310 µM in data set [8]; 1500 µM in data set [9]. Besides, the Km is 10 µM in data set [10]; 450 µM in data set [11]; 150 µM in [12]; 1100 µM in [13]; 4800 µM in data set [14]; 60 µM in data set [15]. In addition, the Km in data set [16] worked out at 1700 µM; in data set [17], 2200 µM; in data set [18], 110 µM; in data set [19] it was 110 µM; in [20], 310 µM; in data set [21] it was 620 µM. Also, the Km in data set [22] is 400 µM. Further, the maximal velocity (Vmax) – broadly, the rate approached at saturating substrate – is 20.2 µmol/min/mg in data set [4]; 20.2 µmol/min/mg in data set [5]; 10.8 µmol/min/mg in data set [6]; 11.3 µmol/min/mg in [7]; 10.0 µmol/min/mg in data set [8]; 2.6 µmol/min/mg in data set [9]. The Vmax is 304.4 µmol/min/mg in data set [12]; 32.6 µmol/min/mg in data set [13]; 16.9 µmol/min/mg in [14]; 27.4 µmol/min/mg in data set [15]; 45.9 µmol/min/mg in data set [16]; 26.2 µmol/min/mg in data set [17]. Also, the Vmax in data set [18] came to 59.1 µmol/min/mg; in [19], 58.4 µmol/min/mg; in data set [20] it was 54.0 µmol/min/mg; in [21] it was 82.1 µmol/min/mg; in [22], 104.5 µmol/min/mg.

The values above are taken from patent publication US4609623A, “Microbiologically produced D-2-hydroxy-4-methylpentanoic acid dehydrogenase, process for its production and its use” (Degussa AG, priority 1983, dated 1986).
